Laboratory results reported in US20140220017A1.

Experiments:
human IgG (human) [1] = assay: QCM; pH 6
mouse IgG (mouse) [2] = assay: QCM; pH 6
human IgG (human) [3] = assay: QCM; pH 7.4
mouse IgG (mouse) [4] = assay: QCM; pH 7.4
human IgG Fc (human) [5] = assay: QCM; pH 6
mouse IgG Fc (mouse) [6] = assay: QCM; pH 6
human IgG Fc (human) [7] = assay: QCM; pH 7.4
mouse IgG Fc (mouse) [8] = assay: QCM; pH 7.4

Row | Substance | Kd (human IgG (human) [1]) [nM] | Kd (mouse IgG (mouse) [2]) [nM] | Kd (human IgG (human) [3]) [nM] | Kd (mouse IgG (mouse) [4]) [nM] | Kd (human IgG Fc (human) [5]) [nM] | Kd (mouse IgG Fc (mouse) [6]) [nM] | Kd (human IgG Fc (human) [7]) [nM] | Kd (mouse IgG Fc (mouse) [8]) [nM]
1 | SpAB (from UniProt P38507 212-269) | 350 | 15000 | 9 | 380 |  |  |  | 
2 | SpAD (from UniProt P38507 93-153) | 148 | 773 | 22 | 56 | 30 | 980 | 14 | 54
